In paper doi:10.1101/2025.03.14.643221:

How the values were obtained:
[1] = system: LmuA(K68A), LmuA-KA;LmuB;LmuC; assay: fluorescence anisotropy
[2] = biological target: SalEnt LmuA(K68A), catalytically dead nuclease effector, tag cleaved (Salmonella enterica subsp. enterica serovar Tennessee (strain TXSC_TXSC08-19)); assay: cryo-EM structure
[3] = biological target: SalEnt LmuB, SMC-like (Rad50-like) ABC ATPase (Salmonella enterica subsp. enterica serovar Tennessee (strain TXSC_TXSC08-19)); assay: cryo-EM structure

Substance: 40-mer dsDNA 6-FAM
- Kd [1]: 180 nM

Substance: SalEnt LmuA(K68A), catalytically dead nuclease effector, tag cleaved (enzyme)
- stoichiometry N [2]: 4

Substance: SalEnt LmuB, SMC-like (Rad50-like) ABC ATPase (natural protein)
- stoichiometry N [3]: 2
